Measured values published in the DeepSol protein solubility set.

Assay: soluble on expression in E. coli; label from the status in PepcDB or PDB records

Which “soluble on expression in E. coli” value does the source give for “ARDPKHDILFEPIQIGPKTLRNRFYQVPHAIGAGSDKPGFQSAHRSVKAEGGWAALNTEYCSINPESDDTHRLSARIWDEGDVRNLKAMTDEVHKYGALAGVELWYGGAHAPNMESRATPRGPSQYASEFETLSYCKEMDLSDIAQVQQFYVDAAKRSRDAGFDIVYVYGAHSYLPLQFLNPYYNKRTDKYGGSLENRARFWLETLEKVKHAVGSDCAIATRFGVDTVYGPGQIEAEVDGQKFVEMADSLVDMWDITIGDIAEWGEDAGPSRFYQQGHTIPWVKLVKQVSKKPVLGVGRYTDPEKMIEIVTKGYADIIGCARPSIADPFLPQKVEQGRYDDIRVCIGCNVCISRWEIGGPPMICTQNATAGEEYRRGWHPEKFRQTKNKDSVLIVGAGPSGSEAARVLMESGYTVHLTDTAEKIGGHLNQVAALPGLGEWSYHRDYRETQITKLLKKNKESQLALGQKPMTADDVLQYGADKVIIATGARWNTDGTNCLTHDPIPGADASLPDQLTPEQVMDGKKKIGKRVVILNADTYFMAPSLAEKLATAGHEVTIVSGVHLANYMHFTLEYPNMMRRLHELHVEELGDHFCSRIEPGRMEIYNIWGDGSKRTYRGPGVSPRDANTSHRWIEFDSLVLVTGRHSECTLWNELKARESEWAENDIKGIYLIGDAEAPRLIADATFTGHRVAREIEEANPQIAIPYKRETIAWGTPHMPGGNFKIEYKV” here?
Its value is “soluble”.

For “MSLKETEIIKLFQEELKSKVLGDDAGFIKLGDRWLLLTNDMLVWRTDVPDFMTPEEAGAKVVTMNVSDIAAMGGKPIGFFFSLGLPRDINEKTLREIAKGIKRGTKRYNVEVLSGDTNESNELVIDGGAIGEAERILLRSGAKPGEVVCVTGDLGRPLTALLLWLKGEKIPREIAEKMKNPIARVREGLELANYASSAIDISDGLSKELWEISKASKVKIVIDPNSLPVHEKVKEIVKNPVEVALASGEEFELVFTISQEYLDILSFEFSIIGRVEKGEGVYTTTGEKVPMRGWEHFAGGNNDIGSEGHHHHHH”, which “soluble on expression in E. coli” value is on record?
The value was “soluble”.

For “MGSDKIHHHHHHMRLTHVDQLNLPFGTLSSYHPYASAPGEAVPVSFDQQRHVGAGERPGSWMAISVSMPKAISREELERAWLEVIERHGTLRTVFSTGMGGEVQQHRIDVGPGKWIDHAVAPGESINEALRAVLNRQCSPYSRPSHSLCIIDAHPRPTVIIGSDHSHVDMWSMLVIVRDLLAALDMELPVEPPLAFESHTAELLAAPPAPERIHQRWREILEAGGGKMPQFPLPLGDAISMPERVEVRDIFGVNGLAIYSARARAQQVSSLALTISVMADVTAALADLPLRAVFPVHSRFDQRWHDSVGWFISNSVIEVPDSDPHTAAQAVREAVSLGSYPLAELLEPWGGMPETPGMFAISWLDLRRLPVSIDDIGLQAQYVSASLRTDGVMLWFILDRSGAHLRCRYPDSLVARENVGRWIDAIVAQMRAEAGTVNLQAGGEQLTLRHGTRADISEIAPLLARNAADPCELVDLEHALDLLTHESSHFLAVVRNARGKIIAAMQLTIVPEFSRGGALHLHIEGPFIIPEYRTTDLDKKLRAWAVEHGRARGVKVEEVVG”, which “soluble on expression in E. coli” value is on record?
The value was “not soluble”.

With “MSAVSNGNPSIVSPRGEHKGTLIFLHGLGDQGHGWADAFKTEAKHDNIKFICPHSSERPVTLNMGMRMPAWFDLFGLDPNAQEDEQGINRATQYVHQLIDAEVAAGIPASRIAVGGFSMGGALAIYAGLTYPQKLGGIVGLSSFFLQRTKFPGSFTANNATPIFLGHGTDDFLVPLQFGQMSEQYIKKFNPKVELHTYRGMQHSSCGEEMRDVKTFLSAHIAH” as the sequence, how does the “soluble on expression in E. coli” value read?
Its value is “not soluble”.

For “MRQSGSWMTIWDDRILEIIHEEGNGSPKELEDRDEIRISKSSVSRRLKKLADHDLLQPLANGVYVITEEGEAYLNGEYDAGKERYINRGNSTDEENGADAPDGPGINS”, which “soluble on expression in E. coli” value is on record?
Its value is “soluble”.

For “MGSDKIHHHHHHMKTNNSPISLLQTQNNTYNVLNNIKVHVEVRDNPYNLELDNLFQMAARINKKRSFLFVSTILGKHLPIKPAVSLASGFALAARYMEILHNTFHPFQKEILNLISLEVDEIPEEIFHYQYPLPEEVLFIGFAETATALGHSMFQCFQNAKYVHTTRESIPNLESVITFEEEHSHATSHRCYVDKSFFQNNNPIILVDDEMTTGKTALNIIRSIQQQFPREEYTIASLLDWRSNTNRRQFKQLEEELQIKIHVISLLEGRIHTTGQPLNITKTDTHIEETKPYFKKHTIICPALSYTSNYIKYTGRFGISSYEQKHIHSFAQEAGKMLQRKRIGKRTLCLGTGEFMYIPMKIAAEMGENILYQSTTRSPIHPVSNDVNYAIHNHFSYPNPEDSTITNYFYNISPHEYDEVFVFMERDVGEEALSPLLQHLQTVIPCIHIVSFSNSIEKEG”, which “soluble on expression in E. coli” value is on record?
Its value is “not soluble”.

For “SPNATPRRPLQELRRAELVEIIVETEAQTGVSGINVAGGGKEGIFVRELREDSPAARSLSLQEGDQLLSARVFFENFKYEDALRLLQCAEPYKVSFCLKRTVPTGDLALRPGTVSGYEIKGPRAKVAKLNIQSLSPVKKKKMVPGALGVPADLAPVDVEFSFPKFSRLRRGLKAEAVKGPVPAAPARRRLQLPRLRVREVAEEAQAARLAAAAPPPRKAKVEAEVAAGARFTAPQVELVGPRLPGAEVGVPQVSAPKAAPSAEAAGGFALHLPTLGLGAPAPPAVEAPAVGIQVPQVELPALPSLPTLPTLPCLETREGAVSVVVPTLDVAAPTVGVDLALPGAEVEARGEAPEVALKMPRLSFPRFGARAKEVAEAKVAKVSPEARVKGPRLRMPTFGLSLLEPRPAAPEVVESKLKLPTIKMPSLGIGVSGPEVKVPKGPEVKLPKAPEVKLPKVPEAALPEVRLPEVELPKVSEMKLPKVPEMAVPEVRLPEVELPKVSEMKLPKVPEMAVPEVRLPEVQLLKVSEMKLPKVPEMAVPEVRLPEVQLPKVSEMKLPEVSEVAVPEVRLPEVQLPKVPEMKVPEMKLPKVPEMKLPEMKLPEVQLPKVPEMAVPDVHLPEVQLPKVPEMKLPEMKLPEVKLPKVPEMAVPDVHLPEVQLPKVPEMKLPKMPEMAVPEVRLPEVQLPKVSEMKLPKVPEMAVPDVHLPEVQLPKVCEMKVPDMKLPEIKLPKVPEMAVPDVHLPEVQLPKVSEIRLPEMQVPKVPDVHLPKAPEVKLPRAPEVQLKATKAEQAEGMEFGFKMPKMTMPKLGRAESPSRGKPGEAGAEVSGKLVTLPCLQPEVDGEAHVGVPSLTLPSVELDLPGALGLQGQVPAAKMGKGERAEGPEVAAGVREVGFRVPSVEIVTPQLPAVEIEEGRLEMIETKVKPSSKFSLPKFGLSGPKVAKAEAEGAGRATKLKVSKFAISLPKARVGAEAEAKGAGEAGLLPALDLSIPQLSLDAHLPSGKVEVAGADLKFKGPRFALPKFGVRGRDTEAAELVPGVAELEGKGWGWDGRVKMPKLKVSTAGQVVTEGHDAGLRMPPLGISLPQVELTGFGEAGTPGQQAQSTVPSAEGTAGYRVQVPQVTLSLPGAQVAGGELLVGEGVFKMPTVTVPQLELDVGLSREAQAGEAATGEGGLRLKLPTLGARARVGGEGAEEQPPGAERTFCLSLPDVELSPSGGNHAEYQVAEGEGEAGHKLKVRLPRFGLVRAKEGAEEGEKAKSPKLRLPRVGFSQSEMVTGEGSPSPEEEEEEEEEGSGEGASGRRGRVRVRLPRVGLAAPSKASRGQEGDAAPKSPVREKSPKFRFPRVSLSPKARSGSGDQEEGGLRVRLPSVGFSETGAPGPARMEGAQAAAV”, which “soluble on expression in E. coli” value is on record?
The value was “soluble”.

For “MNIKEKIVVLRNTEDGSFLKSFKNKKDVLAYNVELTDSIQLASFLPEEAYNIQKEKIDNLAETLGCDVVVIEASYDLKFVDGEDVPELTKEQKVKSMVNGMFEQVFGGE”, which “soluble on expression in E. coli” value is on record?
Its value is “not soluble”.

With “MAHHHHHHMAFAGSNDVLKVQKMLQVLVEKRSDKKVNMDGSAKPTDQPHHPAPCGNAVDGKAPQGADAKGPLLDGKRANPTLGSSKSAKTGPAD” as the sequence, how does the “soluble on expression in E. coli” value read?
The value was “not soluble”.

With “MELIRNLDDANMGEVYWRLYRRYISLFIENEADDAYAWRCARALDELDDAVIERLCAASLRYRAARLERLGESAEEVAPARGVLERIEPGELIVPDPEQGDEAVIHLSLNCEWDREHGMEWIVRGGEVLYVGPFHGEDPWRDFTVKEPWNYA” as the sequence, how does the “soluble on expression in E. coli” value read?
The value was “not soluble”.

For “MSTIAAGRFAKDDVDQDTKWWKEYPSKHYIERARPQNYYDEFVQNAWSKSKRLARAASFTNLTYIKDKDMDFPIRKSDSVSTLAPSLALPQYCREAQRIVHTVPVYKPTVHDWYNKSYSDARWRDTHREINKPYKPLDTYISPASSHVPYYSFQTKRIFFDEKARQLAPYLKESQRYMDRYVSSRLKADDYANRFAYTAYEWRKPQDHSFNREFMTTQGVFVATPTGIPHQHYDKFGMRRLYKRTGRFFF”, which “soluble on expression in E. coli” value is on record?
Its value is “not soluble”.
